{"source": "patent US5972678A", "about": "“Animal 2-5A dependent RNases” (Cleveland Clinic Foundation, priority 1995, dated 1999)", "key": {"2-5A-dependent RNase": {"test_system": "2-5A-dependent RNase", "conditions": "cited from earlier work"}, "poly(U)": {"test_system": "poly(U)", "experiment": "ribonuclease assay with 2-5A-cellulose, poly(U) substrate", "type": "biochemical", "protocol": "(§1) FIG. 5B is reticulocyte lysate pretreated to remove endogeous 2-5A-dependent RNase and is incubated in the absence of added mRNA (.box-solid.), in the presence of human 2-5A-dependent RNase mRNA without inhibitor (.smallcircle., .quadrature.) or in the presence of both 2-5A-dependent RNase mRNA and cycloheximide (50 μg per ml (.circle-solid.). See Example. Subsequently, the recombinant 2-5A-dependent RNase (or controls) is adsorbed to 2-5A-cellulose and ribonuclease assays are performed after extensive washing of the matrix to reduce general nuclease activity. Radiolabeled substrate RNA was either poly(U) (.smallcircle., .circle-solid., .box-solid.) or poly(C) (.quadrature.).\n(§2) Ribonuclease assays with recombinant 2-5A-dependent RNase are performed after immobilizing and purifying the translation product on the activating affinity matrix, 2-5A-cellulose. It was previously shown that murine L cell 2-5A-dependent RNase bound to 2-5A-cellulose, resulting in ribonuclease activity against poly(U) but not poly(c). […]\n(§3) Briefly, lysates are adsorbed to about […] of 2-5A-cellulose on ice for about two hours. […] The matrix is then incubated with poly(U)-[^32 P]Cp or poly(C)-[^32 P]Cp (both at about 16 μM in nucleotide equivalents) at about 30° C. and the levels of acid-precipitable radioactive RNA are determined by filtration on glass-fiber filters."}, "poly(C)": {"test_system": "poly(C)", "experiment": "ribonuclease assay with 2-5A-cellulose, poly(C) substrate", "type": "biochemical", "conditions": "isolated on 2-5A-cellulose", "protocol": "as §1, §2, §3"}, "2-5A probe": {"test_system": "2-5A probe", "experiment": "2-5A binding activity of nested 3'-deletion mutants, filter binding assay and uv crosslinking assay", "conditions": "protein expressed in wheat germ extract", "text": "See Example and Knight et al. 1980). The positions of the P-loop motifs and the lengths of the translation products are indicated. Clone ZB1 encodes for amino acids designated as 1-656 in Table II, except for the last 5 amino acid residues which are Lys, Pro, Leu, Ser, and Gly. Clone ZB2 encodes for amino acids designated as 1-619 in Table II. Clone ZB3 encodes for amino acids designated as 1-515 in Table II. Clone ZB5 encodes for amino acids designated as 1-474 in Table II. Clone ZB9 encodes for amino acids designated as 1-403 in Table II. Clone ZB10 encodes for amino acids designated as 1-365 in Table II. Clone ZB13 encodes for amino acids designated as 1-294 in Table II. Clone ZB14 encodes for amino acids designated as 1-265 in Table II. Clone ZB15 encodes for amino acids designated as 1-218 in Table II.\nTo further define sequences involved in 2-5A binding, nested 3'-deletions of the murine 2-5A-dependent RNase cDNA, clone ZB1, are constructed, transcribed in vitro, and expressed in a wheat germ extract. […] The levels of 2-5A binding activity are determined with the 2-5A probe in both a filter binding assay, Knight, M. et al., Nature, 288: 189-192 (1980), and the uv crosslinking assay, Nolan-Sorden, N. L. et al., Anal. Biochem., 184: 298-304 (1990), with similar results. […]"}}}
{"molecule": "Nc1ncnc2c1ncn2[C@@H]1O[C@H](COP(=O)(O)OP(=O)(O)OP(=O)(O)O)[C@@H](O)[C@H]1O", "note": "[ATP]", "values": [{"measurement": "stimulatory effect on 2-5A-dependent RNase activity", "setting": "2-5A-dependent RNase", "value": "two-fold"}]}
{"molecule": "recombinant human 2-5A-dependent RNase: full-length human 2-5A-dependent RNase, amino acids 1-741 in Table I, produced in vitro in reticulocyte lysate (protein, UniProt Q05823 1-741, looked up, full-length) MESRDHNNPQEGPTSSSGRRAAVEDNHLLIKAVQNEDVDLVQQLLEGGANVNFQEEEGGWTPLHNAVQMSREDIVELLLRHGADPVLRKKNGATPFILAAIAGSVKLLKLFLSKGADVNECDFYGFTAFMEAAVYGKVKALKFLYKRGANVNLRRKTKEDQERLRKGGATALMDAAEKGHVEVLKILLDEMGADVNACDNMGRNALIHALLSSDDSDVEAITHLLLDHGADVNVRGERGKTPLILAVEKKHLGLVQRLLEQEHIEINDTDSDGKTALLLAVELKLKKIAELLCKRGASTDCGDLVMTARRNYDHSLVKVLLSHGAKEDFHPPAEDWKPQSSHWGAALKDLHRIYRPMIGKLKFFIDEKYKIADTSEGGIYLGFYEKQEVAVKTFCEGSPRAQREVSCLQSSRENSHLVTFYGSESHRGHLFVCVTLCEQTLEACLDVHRGEDVENEEDEFARNVLSSIFKAVQELHLSCGYTHQDLQPQNILIDSKKAAHLADFDKSIKWAGDPQEVKRDLEDLGRLVLYVVKKGSISFEDLKAQSNEEVVQLSPDEETKDLIHRLFHPGEHVRDCLSDLLGHPFFWTWESRYRTLRNVGNESDIKTRKSESEILRLLQPGPSEHSKSFDKWTTKINECVMKKMNKFYEKRGNFYQNTVGDLLKFIRNLGEHIDEEKHKKMKLKIGDPSLYFQKTFPDLVIYVYTKLQNTEYRKHFPQTHSPNKPQCDGAGGASGLASPGC", "values": [{"measurement": "half-life of poly(U) degradation", "setting": "poly(U); enzyme from reticulocyte lysate bound to 2-5A-cellulose, about 30° C.", "value": "about 10 minutes"}, {"measurement": "ribonuclease activity towards poly(U) (in words)", "setting": "poly(U); isolated on 2-5A-cellulose", "value": "potent ribonuclease activity"}, {"measurement": "ribonuclease activity against poly(C) (in words)", "setting": "poly(C)", "value": "none"}]}
{"molecule": "Clone ZB15: murine 2-5A-dependent RNase deletion mutant, amino acids 1 to 218, both P-loop motifs deleted (protein, UniProt Q05921 1-218, looked up, fragment) METPDYNTPQGGTPSAGSQRTVVEDDSSLIKAVQKGDVVRVQQLLEKGADANACEDTWGWTPLHNAVQAGRVDIVNLLLSHGADPHRRKKNGATPFIIAGIQGDVKLLEILLSCGADVNECDENGFTAFMEAAERGNAEALRFLFAKGANVNLRRQTTKDKRRLKQGGATALMSAAEKGHLEVLRILLNDMKAEVDARDNMGRNALIRTLLNWDCENV", "values": [{"measurement": "2-5A binding activity (in words)", "setting": "2-5A probe", "value": "completely lacking in 2-5A binding activity"}]}
